The supplement of paper PMC10126150
± gives the standard deviation of the averaged measurements.

test system: ATP; test: switch fluorescence ratio, 500 uM ATP over buffer (Cy3 cluster intensity, sum of 5 cycles each) (fold (ratio)); higher = stronger signal-on switching upon ATP binding; sequences stand for … in TCGTCGGCAGCGTCAGATGTGTATAAGAGACAGTTTTTTTTTTTTTTTTTTTTTTTTT…TC; details: aptamer strand: ATP DNA aptamer (quencher-CACCTGGGGGAGTATTGCGGAGGAAGG + anchor), 100 nM annealed; ATP concentration: 500 uM
Procedure, shortened: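 Switching-strand clusters labelled with Cy3 on a modified Illumina MiSeq flow-cell were annealed to 100 nM quencher-labelled ATP aptamer, imaged in selection buffer, and re-imaged after 15 min with 500 uM ATP at 22 °C. This was done over five cycles with NaOH stripping and re-annealing in between. The fluorescence ratio is summed target-cycle over summed buffer-cycle Cy3 intensity per cluster, averaged per switch-domain sequence, excluding clusters outside 100-1000 RFU.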
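Also: ATP exposure 15 min at 22 °C before imaging.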

ATAAATTGCA and ATAAATTTTC are within error of each other in switch fluorescence ratio: 0.998 ± 0.02 for the first, 0.951 ± 0.043 for the second.

ATAACCAGTT and ATAACCCTTT are within error of each other in switch fluorescence ratio: 0.988 ± 0.014 for the first, 1.12 ± 0.18 for the second.

First: ATAACCGTAC
Second: ATAACGCTCG
The switch fluorescence ratio of the first is higher: 2.46 ± 0.27 for the first, 1 ± 0.018 for the second.

ATAACGGAGG and ATAACGGGGG are within error of each other in switch fluorescence ratio: 0.9773 ± 0.0088 for the first, 1 ± 0.033 for the second.

First: ATAACGTACT
Second: ATAACTCGGA
The switch fluorescence ratio of the first is higher: 1.84 ± 0.18 for the first, 1 ± 0.0019 for the second.

First: ATAAGAAACG
Second: ATAAGAACCG
The switch fluorescence ratio of the first is lower: 0.946 ± 0.064 for the first, 1.07 ± 0.017 for the second.

ATAAGACGTT and ATAAGACTCT are within error of each other in switch fluorescence ratio: 1.01 ± 0.041 for the first, 0.9964 ± 0.0081 for the second.

ATAAGATTTT and ATAAGCAGGA are within error of each other in switch fluorescence ratio: 1.01 ± 0.048 for the first, 1.02 ± 0.017 for the second.

ATAAGCATGT and ATAAGCATTA are within error of each other in switch fluorescence ratio: 1.02 ± 0.034 for the first, 1.05 ± 0.11 for the second.

ATAAGCCCCG and ATAAGCGTTC are within error of each other in switch fluorescence ratio: 0.993 ± 0.049 for the first, 1.04 ± 0.0013 for the second.

ATAAGGGCTT and ATAAGGTCAA are within error of each other in switch fluorescence ratio: 0.929 ± 0.11 for the first, 0.995 ± 0.047 for the second.

ATAAGGTCGT and ATAAGGTTTT are within error of each other in switch fluorescence ratio: 1.02 ± 0.039 for the first, 0.985 ± 0.014 for the second.

ATAAGTGGTT and ATAAGTTAAA are within error of each other in switch fluorescence ratio: 0.995 ± 0.026 for the first, 1.07 ± 0.12 for the second.

ATAAGTTGGG and ATAATAGATA are within error of each other in switch fluorescence ratio: 0.968 ± 0.024 for the first, 1.01 ± 0.038 for the second.

Going from ATAATAGGGT to ATAATAGTTG, the switch fluorescence ratio rises from 0.972 ± 0.03 to 1.02 ± 0.018.

ATAATCCTTG and ATAATGCAGC are within error of each other in switch fluorescence ratio: 1.01 ± 0.005 for the first, 0.988 ± 0.019 for the second.

ATAATGGAGT and ATAATGGGTT are within error of each other in switch fluorescence ratio: 0.983 ± 0.066 for the first, 1.05 ± 0.058 for the second.

ATAATGTAGC and ATAATTATGT are within error of each other in switch fluorescence ratio: 1.04 ± 0.036 for the first, 1 ± 0.018 for the second.

ATAATTCGGC and ATAATTGTCT are within error of each other in switch fluorescence ratio: 0.984 ± 0.022 for the first, 1.04 ± 0.04 for the second.

ATAATTTGGT and ATAATTTTAT are within error of each other in switch fluorescence ratio: 0.982 ± 0.038 for the first, 1.08 ± 0.13 for the second.

Compared with ATACCAGGTT, ATACCCTAGC is lower in switch fluorescence ratio: 1.18 ± 0.063 for the first, 1.09 ± 0.014 for the second.

ATACCGAAGT and ATACCGAGTG are within error of each other in switch fluorescence ratio: 1.17 ± 0.18 for the first, 0.991 ± 0.029 for the second.

Going from ATACCTGAGT to ATACGAACGT, the switch fluorescence ratio falls from 1.21 ± 0.034 to 0.9928 ± 0.0019.

ATACGCGGGC and ATACGCTTTT are within error of each other in switch fluorescence ratio: 1.27 ± 0.038 for the first, 1.14 ± 0.14 for the second.

ATACGGAAAA and ATACGGATGC are within error of each other in switch fluorescence ratio: 1.046 ± 0.004 for the first, 1.06 ± 0.025 for the second.

ATACGGCATG and ATACGGGAAG are within error of each other in switch fluorescence ratio: 1.08 ± 0.011 for the first, 1.05 ± 0.031 for the second.

First: ATACGGGTAG
Second: ATACGGTAGG
The switch fluorescence ratio of the first is lower: 0.9821 ± 0.0052 for the first, 1.006 ± 0.01 for the second.

ATACGTGGGA and ATACTAAGTG are the same in switch fluorescence ratio: 1.01 ± 0.032 for the first, 1.01 ± 0.02 for the second.

First: ATACTCAGTG
Second: ATACTCATAT
The switch fluorescence ratio of the first is higher: 1.069 ± 0.0084 for the first, 1.01 ± 0.015 for the second.

ATACTGAATT and ATACTGAGTT are within error of each other in switch fluorescence ratio: 1.005 ± 0.0065 for the first, 1.05 ± 0.042 for the second.

First: ATACTTACCG
Second: ATACTTATAT
The switch fluorescence ratio of the first is higher: 1.223 ± 0.0077 for the first, 1.038 ± 0.0097 for the second.

ATACTTGGCT and ATACTTTTGG are within error of each other in switch fluorescence ratio: 0.992 ± 0.02 for the first, 1 ± 0.011 for the second.

ATAGAAAGGG and ATAGAAGAAA are the same in switch fluorescence ratio: 1.02 ± 0.063 for the first, 1.02 ± 0.047 for the second.

ATAGACAGCA and ATAGACGTTT are within error of each other in switch fluorescence ratio: 1.01 ± 0.025 for the first, 0.994 ± 0.053 for the second.

ATAGAGATGT and ATAGAGCGCT are within error of each other in switch fluorescence ratio: 0.978 ± 0.018 for the first, 0.988 ± 0.023 for the second.

ATAGAGGGGT and ATAGAGGGTG are within error of each other in switch fluorescence ratio: 1.01 ± 0.023 for the first, 1.05 ± 0.071 for the second.

Compared with ATAGAGGTGA, ATAGATAGGG is lower in switch fluorescence ratio: 1.019 ± 0.0022 for the first, 0.969 ± 0.021 for the second.

ATAGATCGCA and ATAGATGATC are within error of each other in switch fluorescence ratio: 1.02 ± 0.018 for the first, 1 ± 0.031 for the second.

Going from ATAGCATTAT to ATAGCTTGGC, the switch fluorescence ratio falls from 1.14 ± 0.026 to 1.011 ± 0.0047.

Going from ATAGGAGAGT to ATAGGAGGTG, the switch fluorescence ratio rises from 1.003 ± 0.0091 to 1.07 ± 0.019.

ATAGGATAGT and ATAGGCGTGC are within error of each other in switch fluorescence ratio: 0.976 ± 0.015 for the first, 1 ± 0.011 for the second.

ATAGGGAGGT and ATAGGGATGG are within error of each other in switch fluorescence ratio: 1.01 ± 0.032 for the first, 0.9829 ± 0.0035 for the second.

ATAGGGCAGC and ATAGGGGCTA are within error of each other in switch fluorescence ratio: 1.03 ± 0.04 for the first, 0.988 ± 0.02 for the second.

First: ATAGGGGCTC
Second: ATAGGGTGCT
The switch fluorescence ratio of the first is lower: 0.988 ± 0.021 for the first, 1.04 ± 0.027 for the second.

ATAGGTAGGC and ATAGGTCTAT are within error of each other in switch fluorescence ratio: 1.05 ± 0.072 for the first, 1.04 ± 0.065 for the second.

ATAGGTGGCG and ATAGTAGTGG are within error of each other in switch fluorescence ratio: 1.01 ± 0.038 for the first, 1.003 ± 0.0081 for the second.

ATAGTATAGA and ATAGTATTTT are within error of each other in switch fluorescence ratio: 1.01 ± 0.047 for the first, 0.995 ± 0.025 for the second.

ATAGTCCACC and ATAGTCCATA are within error of each other in switch fluorescence ratio: 1.014 ± 0.0072 for the first, 0.991 ± 0.015 for the second.

ATAGTCCCTA and ATAGTCGCCC are the same in switch fluorescence ratio: 1.01 ± 0.0019 for the first, 1.009 ± 0.0031 for the second.

ATAGTCGCGC and ATAGTGAAGT are within error of each other in switch fluorescence ratio: 0.993 ± 0.058 for the first, 0.982 ± 0.019 for the second.
